Kd data for 31 molecules are collected here from paper PMC10786891, “Massively parallel profiling of RNA-targeting CRISPR-Cas13d”.

Where a chain is given by its changes, count along the chain named. In names and notes the source's numbering stands.

B1: target 1 G17A (mixed)
RNA 1: CACCCGUGCAAAAAUGCAGGGGUCUAAAACUGAGCGGAUAACCUCUCUAUGG
RNA 2: GGGAAUGGAUCCACAUCUACGAAUUCGUACCAUAAAGAGGUUAUCCGCUCACCGAGAUCGGAAGAGCACACGU
B2: target 1 del5,del7 (mixed)
RNA 1: B1 RNA 1
RNA 2: GGGAAUGGAUCCACAUCUACGAAUUCGUACCAUAGAGAGGUUAUCCUCACCGAGAUCGGAAGAGCACACGU
B3: target 1 insG 3' of 22,insC 3' of 5 (mixed)
RNA 1: B1 RNA 1
RNA 2: GGGAAUGGAUCCACAUCUACGAAUUCGUACGCAUAGAGAGGUUAUCCGCCUCACCGAGAUCGGAAGAGCACACGU
B4: target 1 insA 3' of 7,insA 3' of 7 (mixed)
RNA 1: B1 RNA 1
RNA 2: GGGAAUGGAUCCACAUCUACGAAUUCGUACCAUAGAGAGGUUAUCAACGCUCACCGAGAUCGGAAGAGCACACGU
B5: target 1 G17A,A18U (mixed)
RNA 1: B1 RNA 1
RNA 2: B1 RNA 2 with A34U
B6: target 1 G5U,C7U (mixed)
RNA 1: B1 RNA 1
RNA 2: B1 RNA 2 with A35G, C45U, G47U
B7: target 1 insC 3' of 18,insG 3' of 4 (mixed)
RNA 1: B1 RNA 1
RNA 2: B3 RNA 2 with G31C, C32A, A33U, U34A, A35C, C50G
B8: target 1 del8,del19 (mixed)
RNA 1: B1 RNA 1
RNA 2: GGGAAUGGAUCCACAUCUACGAAUUCGUACCAAGAGAGGUUACCGCUCACCGAGAUCGGAAGAGCACACGU
B9: target 1 C7U,G15U (mixed)
RNA 1: B1 RNA 1
RNA 2: B1 RNA 2 with A35G, G37U, C45U
B10: target 1 insC 3' of 10,insG 3' of 10 (mixed)
RNA 1: B1 RNA 1
RNA 2: B4 RNA 2 with A43C, U44G, C45A, A46U, A47C
B11: target 1 insU 3' of 7,insU 3' of 4 (mixed)
RNA 1: B1 RNA 1
RNA 2: B4 RNA 2 with A46U, A47C, C48G, G49C, C50U
B12: target 1 C6G,U10C (mixed)
RNA 1: B1 RNA 1
RNA 2: B1 RNA 2 with A35G, U42C, C46G
B13: target 1 C7G,A14C (mixed)
RNA 1: B1 RNA 1
RNA 2: B1 RNA 2 with A35G, A38C, C45G
B14: target 1 insC 3' of 13,insG 3' of 9 (mixed)
RNA 1: B1 RNA 1
RNA 2: B4 RNA 2 with G40C, U41G, A43U, U44A, C45G, A46U, A47C
B15: target 1 insG 3' of 19,insA 3' of 3 (mixed)
RNA 1: B1 RNA 1
RNA 2: B3 RNA 2 with G31C, C32A, A33U, U34G, C50U, U51A
B16: target 1 insU 3' of 21,insA 3' of 7 (mixed)
RNA 1: B1 RNA 1
RNA 2: B3 RNA 2 with G31C, C32U, C47A, G48C, C49G
B17: target 1 insA 3' of 17,insG 3' of 10 (mixed)
RNA 1: B1 RNA 1
RNA 2: B4 RNA 2 with G37A, A38G, G39A, U41G, A43U, U44G, C45A, A46U, A47C
B18: target 1 U3G,A18U (mixed)
RNA 1: B1 RNA 1
RNA 2: B1 RNA 2 with A34U, A35G, U49G
B19: target 1 insC 3' of 11,insG 3' of 2 (mixed)
RNA 1: B1 RNA 1
RNA 2: GGGAAUGGAUCCACAUCUACGAAUUCGUACCAUAGAGAGGUCUAUCCGCUCGACCGAGAUCGGAAGAGCACACGU
B20: target 1 insG 3' of 7,insA 3' of 5 (mixed)
RNA 1: B1 RNA 1
RNA 2: B4 RNA 2 with A46G, A47C, C48G, G49A
B21: target 1 insC 3' of 15,insU 3' of 13 (mixed)
RNA 1: B1 RNA 1
RNA 2: B4 RNA 2 with A38C, G39A, U42G, A43U, C45A, A46U, A47C
B22: target 1 A9U,A16C (mixed)
RNA 1: B1 RNA 1
RNA 2: B1 RNA 2 with A35G, A36C, A43U
B23: target 1 U8G,G17C (mixed)
RNA 1: B1 RNA 1
RNA 2: B1 RNA 2 with A35C, U44G
B24: target 1 insC 3' of 20,insA 3' of 10 (mixed)
RNA 1: B1 RNA 1
RNA 2: B3 RNA 2 with G31C, C32A, A33C, U45A, C46U, G48C, C49G
B25: target 1 insU 3' of 15,insC 3' of 14 (mixed)
RNA 1: B1 RNA 1
RNA 2: B4 RNA 2 with A38U, G39A, G40C, U41G, U42G, A43U, C45A, A46U, A47C
B26: target 1 A1U,G17A (mixed)
RNA 1: B1 RNA 1
RNA 2: B1 RNA 2 with A51U
B27: target 1 A1C,G17A (mixed)
RNA 1: B1 RNA 1
RNA 2: B1 RNA 2 with A51C
B28: target 1 C7G,U8A (mixed)
RNA 1: B1 RNA 1
RNA 2: B1 RNA 2 with A35G, U44A, C45G
B29: target 1 C6A,U8C (mixed)
RNA 1: B1 RNA 1
RNA 2: B1 RNA 2 with A35G, U44C, C46A
B30: target 1 insA 3' of 3,insC 3' of 3 (mixed)
RNA 1: B1 RNA 1
RNA 2: B4 RNA 2 with A46C, A47G, G49U, C50A, U51C
B31: target 1 insA 3' of 22,insU 3' of 18 (mixed)
RNA 1: B1 RNA 1
RNA 2: GGGAAUGGAUCCACAUCUACGAAUUCGUACACAUAUGAGAGGUUAUCCGCUCACCGAGAUCGGAAGAGCACACGU

This data set deals with T1, EsCas13d, nuclease-dead (Eubacterium siraeum, UniProt B0MS50, R295A;H300A;R849A;H854A).
T1 sequence: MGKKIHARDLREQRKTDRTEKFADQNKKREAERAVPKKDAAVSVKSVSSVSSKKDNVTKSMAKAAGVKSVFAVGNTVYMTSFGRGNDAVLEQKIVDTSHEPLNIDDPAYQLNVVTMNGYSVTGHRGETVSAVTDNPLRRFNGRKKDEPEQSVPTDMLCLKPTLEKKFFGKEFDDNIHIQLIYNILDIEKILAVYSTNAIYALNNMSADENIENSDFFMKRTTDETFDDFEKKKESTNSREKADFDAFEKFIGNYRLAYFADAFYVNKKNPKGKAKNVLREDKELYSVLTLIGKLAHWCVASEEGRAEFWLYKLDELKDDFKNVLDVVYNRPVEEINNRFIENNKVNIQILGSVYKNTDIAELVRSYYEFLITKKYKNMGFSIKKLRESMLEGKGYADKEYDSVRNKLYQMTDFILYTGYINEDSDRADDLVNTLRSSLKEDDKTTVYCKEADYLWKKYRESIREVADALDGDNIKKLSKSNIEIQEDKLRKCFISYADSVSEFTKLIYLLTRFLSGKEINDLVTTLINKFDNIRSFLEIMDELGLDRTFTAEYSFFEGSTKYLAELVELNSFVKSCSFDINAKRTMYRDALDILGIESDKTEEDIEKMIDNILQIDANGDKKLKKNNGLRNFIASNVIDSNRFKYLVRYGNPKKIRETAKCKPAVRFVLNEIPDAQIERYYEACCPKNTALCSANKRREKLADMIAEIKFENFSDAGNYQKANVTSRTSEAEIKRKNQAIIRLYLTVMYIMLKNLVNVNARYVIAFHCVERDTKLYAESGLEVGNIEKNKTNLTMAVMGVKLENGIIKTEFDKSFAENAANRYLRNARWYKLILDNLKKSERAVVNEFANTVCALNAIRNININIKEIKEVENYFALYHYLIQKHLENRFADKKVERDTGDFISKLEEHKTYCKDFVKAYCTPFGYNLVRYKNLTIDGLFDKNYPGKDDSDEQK
Nature of the data set: crRNA (strand 1, pre-loaded); Mg2+; 40 mM Tris-HCl pH 7.5, 150 mM NaCl, 6 mM MgCl2, 1 mM DTT, 0.1% Tween-20, 0.2 mg/ml BSA; 25 C; 10 min per concentration, then washed. The conditions noted are these: tags: His6-TwinStrep-SUMO cleaved; N-terminal SNAP kept (SNAP-Surface 488); label: 3' end held by stalled T7 RNA polymerase.
As usually defined, the Kd is the concentration at which binding is half-saturated. The molecule B1 had a dissociation constant (Kd) of 27.4 ± 1.7 nM.
The value for B2 was 13.9 ± 0.7 nM; that for B3 was 67 ± 23 nM.
The molecule B4 had a Kd of 7 ± 0.5 nM.
In the case of B5, the Kd was found to be 50 ± 12 nM.
B6 displayed a Kd of 53 ± 6 nM.
For B7, the Kd turned out to be 35.7 ± 2 nM.
The value for B8 was 64 ± 7 nM; that for B9 was 13.1 ± 1 nM.
To B10 belongs 13.6 ± 0.5 nM; to B11, 15.2 ± 0.6 nM; to B12, 14.2 ± 0.4 nM.
B13: the affinity, expressed as Kd, was 33.5 ± 2.9 nM.
To B14 belongs 13 ± 0.9 nM; to B15, 49 ± 5 nM.
To B16 belongs 20.3 ± 0.9 nM.
To B17 belongs 43 ± 9 nM; to B18, 20.5 ± 1.3 nM; to B19, 42 ± 14 nM.
For B20, binding was characterised by a dissociation constant (Kd) of 7.33 ± 0.33 nM.
In turn, B21 displayed a dissociation constant Kd of 26 ± 5 nM.
In turn, B22 yielded a dissociation constant (Kd) of 45 ± 6 nM.
B23 displayed a Kd of 72 ± 15 nM.
Regarding B24, the equilibrium dissociation constant (Kd) is 10.1 ± 0.4 nM.
B25 had a Kd of 43 ± 6 nM.
To B26 belongs 36 ± 10 nM; to B27, approximately 45 nM; to B28, 7.45 ± 0.24 nM.
In turn, B29 came in with a Kd of 10.7 ± 0.6 nM.
The value for B30 was 62 ± 19 nM.
The value for B31 was 47 ± 6 nM.
